Assay results as given in US20170157165A1.

Molecular target: Human FGF2 (manufactured by Peprotech Inc.) (human) (UniProt P09038)
Experiment: cell-based or functional assay

Chain of Human FGF2 (manufactured by Peprotech Inc.) (human) (P09038 135-288 limits assumed): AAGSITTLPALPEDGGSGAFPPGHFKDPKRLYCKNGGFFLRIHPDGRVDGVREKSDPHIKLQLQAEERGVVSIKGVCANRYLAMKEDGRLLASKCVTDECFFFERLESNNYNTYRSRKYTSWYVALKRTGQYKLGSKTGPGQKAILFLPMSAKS

## anti-FGF2 antibody Anti-FGF, basic (Ab-3) Mouse mAb (3H3) (manufactured by Calbiochem)
  inhibitory rate (%) of FGF2-dependent growth of HUVEC cells; 3H3 (1 nM) + FGF2 (500 pM): 8.5%
  inhibitory rate (%) of FGF2-dependent growth of HUVEC cells; 3H3 (5 nM) + FGF2 (500 pM): 30%
  inhibitory rate (%) of FGF2-dependent growth of HUVEC cells; 3H3 (25 nM) + FGF2 (500 pM): 100%
